# Where “and” joins values, the source holds several entries; their conditions need not be identical. Equal values may be shown once.
# What was measured:
# IL-8 = test: Micro-array analysis of chemokine binding peptides: IL-8; conditions: limit = start of the upper 75% of that peptide's response range
# Method: (§1) (1) Printing: Chemokine (CK) solution (in water) was serially diluted with Print Reagent (GenTel BioSurfaces USA) to final concentrations of 50 μg and 25 μg/ml. BSA/BSA-Biotin control solutions (in water) were diluted with Print Reagent to 100 μg/ml. Amplified stock of M13 phage control (M13KEgIII Cloning Vector, New England Biolabs, Cat.No.E8101S) was stored in Tris Buffered Saline (TBS; pH7.5, 4° C.) and diluted with Print Reagent to the working titre (10^8 pfu/μl). An automated spotting robot (16 pin print tool, 0.4 mm head; BioRobotics, UK) was used to print the CK/BSA control/M13 control, 5 repeats per sample (CK 25 μg/ml and 50 μg/ml; BSA 100 μg/ml; M13 20 μl), on PATH Protein Microarray Slides (GenTel, Prod.No. 2-1005/-1025) at […], and 50-70% relative humidity. Printed micro-array slides were stored at Room Temperature (RT) or 4° C. for at least 24 h before use.
# (§2) (2) Blocking: Block Buffer (500 μl/partition; PATHblock, GenTel, Prod.No. 2-1014) was applied to the slide for 1 hour at room temp (RT). After removal of Block Buffer, the slide was air dried for 25 minutes;
# (§3) (3) Phage Presented Peptide Binding: Amplified recombinant phage stock was stored in TBS and diluted with Wash Buffer to working titer (10^7 pfu/μl). Recombinant phage suspension (300 μl) was applied per partition and incubated at RT for 1 hour with gentle agitation.
# (§4) (4) First Washing: The slides were washed twice with Wash Buffer 300 μl/partition).
# (§5) (5) Primary Antibody (Ab) Labeling: The slides were incubated with the Primary Ab (1 mg/ml diluted ×2500 (Wash Reagent), 300 μl; Mouse Anti-M13 monoclonal Ab; Amersham Biosciences, UK; Product Code 27-9420-01) for 45 minutes at RT.
# (§6) (6) Second Washing: The slides were washed twice with Wash Buffer (300 μl/partition).
# (§7) (7) Secondary Ab Labeling: The slides were incubated with Secondary Ab (1.5 mg/ml diluted ×5000 (Wash Reagent), 300 μl; Cy3-conjugated AffiniPure Goat Anti-Mouse IgG; Jackson ImmunoReserch Labs, USA; Product Code 115-165-062).
# (§8) (8) Third Washing: The slides were washed twice with Wash Buffer (300 μl/partition).
# (§9) (9) Rinse: the slides were rinsed twice with Rinse Buffer (PATHrinse, GenTel, Prod.No. 2-1018) then dried well.
# (§10) (10) Scanning: The peptide-bound, labeled slide was scanned (Laser Intensity 80%, Gain 80%, Resolution 10 μm) with a ScanArray Life Scanner (Packard BioChip Technologies, USA).
# (§11) (11) Analysis: Quantitative analysis of micro-array was performed by the SpotReader program of Niles Scientific (USA) and presented as Relative Fluorescence (RF) as a function of CK concentration. Micro-array readout (Cy3 fluorescence) was quantified to determine the relative binding affinities of a CBP for the CKs and by inference, the specificity of the CBP for binding to a CK.
# Exodus-2 = biological target: T1, Exodus-2 (Homo sapiens, UniProt O00585); test: Micro-array analysis of chemokine binding peptides: Exodus-2
# T1 construct: purchased 300-35
# T1 sequence (O00585 24-134): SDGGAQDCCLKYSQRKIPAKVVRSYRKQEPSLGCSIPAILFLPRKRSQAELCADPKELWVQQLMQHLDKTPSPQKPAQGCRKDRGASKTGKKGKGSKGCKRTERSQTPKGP
# Method: as §1, §2, §3, §4, §5, §6, §7, §8, §9, §10, §11
# SDF1-β = biological target: T2, SDF1-β (Homo sapiens, UniProt P48061); test: Micro-array analysis of chemokine binding peptides: SDF1-β
# T2 construct: purchased 300-28b
# Method: as §1, §2, §3, §4, §5, §6, §7, §8, §9, §10, §11
# Eotaxin 3 = biological target: T3, Eotaxin 3 (Homo sapiens, UniProt Q9Y258); test: Micro-array analysis of chemokine binding peptides: Eotaxin 3; conditions: limit = start of the upper 75% of that peptide's response range
# T3 construct: purchased 300-48
# T3 sequence (Q9Y258 24-94): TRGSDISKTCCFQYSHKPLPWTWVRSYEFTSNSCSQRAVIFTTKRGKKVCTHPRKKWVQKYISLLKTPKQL
# Method: as §1, §2, §3, §4, §5, §6, §7, §8, §9, §10, §11
# BCA-1 = biological target: T4, BCA-1 (Homo sapiens, UniProt O43927); test: Micro-array analysis of chemokine binding peptides: BCA-1
# T4 construct: purchased 300-47
# T4 sequence (O43927 23-109): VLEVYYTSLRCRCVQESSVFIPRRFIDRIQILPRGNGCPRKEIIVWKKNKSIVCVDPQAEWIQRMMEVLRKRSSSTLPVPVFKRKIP
# Method: as §1, §2, §3, §4, §5, §6, §7, §8, §9, §10, §11
# MCP-4 = biological target: T5, MCP-4 (Homo sapiens, UniProt Q99616); test: Micro-array analysis of chemokine binding peptides: MCP-4; conditions: limit = start of the upper 75% of that peptide's response range
# T5 construct: purchased 300-24
# Method: as §1, §2, §3, §4, §5, §6, §7, §8, §9, §10, §11
# Lymphotactin = biological target: T6, Lymphotactin (Homo sapiens, UniProt P47992); test: Micro-array analysis of chemokine binding peptides: Lymphotactin
# T6 construct: purchased 300-20
# T6 sequence (P47992 22-114): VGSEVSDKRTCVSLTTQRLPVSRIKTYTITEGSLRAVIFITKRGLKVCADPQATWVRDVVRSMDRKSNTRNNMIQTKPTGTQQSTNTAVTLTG
# Method: as §1, §2, §3, §4, §5, §6, §7, §8, §9, §10, §11
# TECK = biological target: T7, TECK (Homo sapiens, UniProt O15444); test: Micro-array analysis of chemokine binding peptides: TECK
# T7 construct: purchased 300-45
# T7 sequence (O15444 24-150): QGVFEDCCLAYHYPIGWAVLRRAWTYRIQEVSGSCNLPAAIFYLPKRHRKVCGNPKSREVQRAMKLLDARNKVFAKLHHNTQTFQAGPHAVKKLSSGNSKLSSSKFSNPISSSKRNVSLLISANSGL
# Method: as §1, §2, §3, §4, §5, §6, §7, §8, §9, §10, §11
# IP-10 = biological target: T8, IP-10 (Homo sapiens, UniProt P02778); test: Micro-array analysis of chemokine binding peptides: IP-10; conditions: limit = start of the upper 75% of that peptide's response range
# T8 construct: purchased 300-12
# T8 sequence (P02778 22-98): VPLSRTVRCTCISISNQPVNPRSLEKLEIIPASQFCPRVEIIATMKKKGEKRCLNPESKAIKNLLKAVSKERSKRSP
# Method: as §1, §2, §3, §4, §5, §6, §7, §8, §9, §10, §11
# Fractalkine = biological target: T9, Fractalkine (Homo sapiens, UniProt P78423); test: Micro-array analysis of chemokine binding peptides: Fractalkine
# T9 construct: purchased 300-31
# T9 sequence (P78423 25-100 limits assumed): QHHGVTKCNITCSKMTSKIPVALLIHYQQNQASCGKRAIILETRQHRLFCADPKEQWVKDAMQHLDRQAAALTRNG
# Method: as §1, §2, §3, §4, §5, §6, §7, §8, §9, §10, §11
# RANTES = biological target: T10, RANTES (Homo sapiens, UniProt P13501); test: Micro-array analysis of chemokine binding peptides: RANTES; conditions: limit = start of the upper 75% of that peptide's response range
# T10 construct: purchased 300-06
# T10 sequence (P13501 24-91): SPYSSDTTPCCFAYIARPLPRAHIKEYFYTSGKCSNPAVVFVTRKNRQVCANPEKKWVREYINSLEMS
# Method: as §1, §2, §3, §4, §5, §6, §7, §8, §9, §10, §11
# Mig = biological target: T11, Mig (Homo sapiens, UniProt Q07325); test: Micro-array analysis of chemokine binding peptides: Mig; conditions: limit = start of the upper 75% of that peptide's response range
# T11 construct: purchased 300-26
# T11 sequence (Q07325 23-125): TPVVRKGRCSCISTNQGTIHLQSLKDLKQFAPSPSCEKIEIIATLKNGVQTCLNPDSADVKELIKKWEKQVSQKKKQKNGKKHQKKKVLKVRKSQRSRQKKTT
# Method: as §1, §2, §3, §4, §5, §6, §7, §8, §9, §10, §11
# MCP-2 = biological target: T12, MCP-2 (Homo sapiens, UniProt P80075); test: Micro-array analysis of chemokine binding peptides: MCP-2; conditions: limit = start of the upper 75% of that peptide's response range
# T12 construct: purchased 300-15
# T12 sequence (P80075 24-99): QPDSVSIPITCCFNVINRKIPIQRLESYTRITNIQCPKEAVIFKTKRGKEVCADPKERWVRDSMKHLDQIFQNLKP
# Method: as §1, §2, §3, §4, §5, §6, §7, §8, §9, §10, §11
# [1] = test system: Adjuvant-Induced Arthritis (AIA) rats; test: Adjuvant Induced Arthritis (AIA) rat model, Clinical Score; assay type: in vivo
# Method: Peptides were tested in a rat model of AIA for their anti-inflammatory effects.
# Disease Induction: AIA was induced in female Lewis rats aged 7-8 weeks by injection of heat-killed Mycobacerioum tuberculosis (Mt strain H37Ra, Difco Laboratories, USA) dispersed in incomplete Freund's adjuvant to a final concentration of 10 mg/ml (100 μl) at the base of the tail on day 0.
# Measurement: Clinical Score (CS, 0-4) for each limb based on (a) joint inflammation, (b) redness, (c) deformity.
# Efficacy Protocol 1 (5 rats per group). Peptide/control compound was injected intra-peritoneally (IP, 200 μl) on days 7-11 and 14-18.
# Rats were sacrificed (CO2 inhalation) on day 43.
# Efficacy Protocol 2 (8 rats per group). Group 1: peptide/PBS was injected intra-peritoneally (IP, 200 μl) on days 7-18; Group 2: PBS was injected IP on days 7-18; Group 3: Dexamethasone (Dexa) was injected IP on days 11 (Clinical Score (CS)1) and 13. Rats were sacrificed on day 43.
# Combination Efficacy Protocol 1 (8 rats per group). Group 1: peptide injected IP on days 7-18; Group 2: PBS injected IP on days 7-18; Group 3: Dexa injected IP on day 11 (CS 1) and day 13; Group 4: Dexa injected IP on days 11 and 13 then peptide injected on days 14-22; Group 5: Dexa injected IP on days 11 and 13 then PBS injected on days 14-22.
# Combination Efficacy Protocol 2 (8 rats per group). Group 1: peptide injected IP on days 7-18; Group 2: PBS injected IP on days 7-18; Group 3: Dexa injected IP on day 11 (CS 1) and day 13 then PBS on days 14-22; Group 4: PBS injected IP on days 7-10,12,14; Dexa injected on days 11, 13. Peptide injected on days 15-19.
# Combination Efficacy Protocol 3 (8 rats per group). Group 1: peptide injected IP on days 7-18; Group 2: PBS injected IP on days 7-18; Group 3: Dexa injected IP on day 11 (CS 1) and day 13 then PBS on days 14-22; Group 4: peptide injected IP on days 7-10,12,14; Dexa injected on days 11, 13. Peptide injected on days 15-19.
# Control Reagents for Adjuvant Induced Arthritis: Anti-Inflammatory Control: Dexamethasone Sodium Phosphate (Dexacort Forte, Teva) was dissolved in Phosphate Buffer Saline (PBS, GIBCO) to a final concentration of 1 mg/ml and injected in 200 μl (200 μg).
# Negative Control: Phosphate Buffer Saline (PBS).
# [2] = Dexa 200 μg IP on days 11 and 13
# [3] = limit = start of the upper 75% of that peptide's response range
# T5 sequence (Q99616 17-98): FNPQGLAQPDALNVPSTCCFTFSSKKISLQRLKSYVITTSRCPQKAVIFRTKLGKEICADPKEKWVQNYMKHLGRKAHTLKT
# T2 sequence (P48061 22-93): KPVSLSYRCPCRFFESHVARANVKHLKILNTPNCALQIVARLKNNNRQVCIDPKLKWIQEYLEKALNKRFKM
# Sequence of IL-8 (P10145 28-99 limits assumed): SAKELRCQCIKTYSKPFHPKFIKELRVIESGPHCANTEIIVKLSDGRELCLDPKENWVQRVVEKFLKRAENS
Substance,binding to IL-8 with relatively high affinity (Relative Fluorescence Units) (IL-8),"binding to Exodus-2, stated in words (Exodus-2)","binding to SDF1-β, stated in words (SDF1-β)",binding to Eotaxin 3 with relatively high affinity (Relative Fluorescence Units) (Eotaxin 3),"binding to BCA-1, stated in words (BCA-1)",binding to MCP-4 with relatively high affinity (Relative Fluorescence Units) (MCP-4),"binding to Lymphotactin, stated in words (Lymphotactin)","binding to TECK, stated in words (TECK)",binding to IP-10 with relatively high affinity (Relative Fluorescence Units) (IP-10),"binding to Fractalkine, stated in words (Fractalkine)",binding to RANTES with relatively high affinity (Relative Fluorescence Units) (RANTES),binding to Mig with relatively high affinity (Relative Fluorescence Units) (Mig),binding to MCP-2 with relatively high affinity (Relative Fluorescence Units) (MCP-2),"day by which inflammation approached / was comparable with the disease, untreated group [1, 2]","day from which inflammation increased (onset of inflammation) [1, 2]","day until which inflammation was at the base line ([1]; Dexa IP on days 7-11 and 14-18, afterwards rose almost to the untreated, disease group) [days]",binding to BCA-1 with relatively high affinity (Relative Fluorescence Units) (BCA-1; [3]),binding to Lymphotactin with relatively high affinity (Relative Fluorescence Units) (Lymphotactin; [3]),binding to TECK with relatively high affinity (Relative Fluorescence Units) (TECK; [3])
DYD [Ph-p33],"> 15,000 RFU",bound,bound,"> 15,000 RFU",bound,"> 15,000 RFU",bound,bound,"> 15,000 RFU",bound,"> 15,000 RFU","> 15,000 RFU","> 15,000 RFU",,,,,,
Dexamethasone Sodium Phosphate [reference compound],,,,,,,,,,,,,,21 days and 28 days,15 days and 14 days,24,,,
GNAMCK (listed as Homo sapiens) [Ph-p8.1],,,,"> 15,000 RFU",,,,,,,,,,,,,"> 15,000 RFU","> 15,000 RFU","> 15,000 RFU"

# From patent US12072338B2, “Pharmaceutical peptides for the treatment of inflammatory diseases” (PROTAGONISTS LTD., priority 2007, dated 2024)
